Binding result and Kd data for three molecules are collected here from patent US20210324028A1 (Pfizer, published 2021).

The target of one assay is T1, human IL-15Rα (human, UniProt Q13261 31-205, limits assumed).
T1 construct: also called hIL-15Rα; IL-15 receptor alpha
Briefly: SPR 37C, fusion captured by anti-human Fc. As to the method: (§1) Anti-human Fc sensor chips were prepared at 25° C. with a running buffer of 10 mM HEPES, 150 mM NaCl, 0.05% (v/v) Tween-20, pH 7.4. All surfaces of a Biacore CM4 sensor chip were activated with a 1:1 (v/v) mixture of 400 mM EDC and 100 mM NHS for 7 minutes, at a flow rate of 10 μL/min. An anti-human Fc reagent (Goat anti-human IgG Fc-γ specific, SouthernBiotech, Birmingham, Ala., Catalog #2014-01) was diluted to 50 μg/mL in 10 mM sodium acetate (pH 4.5) and injected on all flow cells for 7 minutes at 20 μL/min. All flow cells were blocked with 100 mM ethylenediamine in 200 mM Borate buffer pH 8.5 for 7 minutes at 10 μL/min.
(§2) All protein interaction experiments were performed at 37° C. using a running buffer of 10 mM HEPES, 150 mM NaCl, 0.05% (v/v) Tween-20, pH 7.4, 1 mg/mL BSA. Anti-PD-1-hIL-15 fusion proteins were captured at 10 μg/mL at a flow rate of 10 μL/min for 2 minutes. Different fusion proteins were captured in flow cells 2, 3 and 4. No protein was captured onto flow cell 1 which was used as a reference surface. […] After each analyte injection, dissociation was monitored for 5 minutes followed by regeneration of all flow cells with three 60-second injections of 75 mM phosphoric acid. […] For kinetic analysis, the double-referenced sensorgrams were fit globally to a simple 1:1 Langmuir with mass transport binding model using Biacore T200 Evaluation Software version 2.0. For steady-state affinity analysis, the double-referenced equilibrium binding responses were fit with a 1:1 Langmuir steady-state model using Biacore T200 Evaluation Software version 2.0.

The target in a further assay is T2, human IL-2Rβ (human, UniProt P14784 27-240, limits assumed).
T2 construct: also called hIL-2Rβ; IL-2 receptor beta
T2 sequence (looked up): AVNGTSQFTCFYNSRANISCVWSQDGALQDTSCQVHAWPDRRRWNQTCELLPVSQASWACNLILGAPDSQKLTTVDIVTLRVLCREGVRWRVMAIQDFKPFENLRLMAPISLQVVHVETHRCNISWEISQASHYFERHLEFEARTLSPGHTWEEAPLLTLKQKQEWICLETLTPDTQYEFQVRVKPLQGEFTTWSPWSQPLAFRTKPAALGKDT
Briefly: SPR, fusion captured. On the procedure:
as §1, §2

Where only a bound is given, the exact number is not on record here.

T1 sequence (Q13261 31-205 limits assumed): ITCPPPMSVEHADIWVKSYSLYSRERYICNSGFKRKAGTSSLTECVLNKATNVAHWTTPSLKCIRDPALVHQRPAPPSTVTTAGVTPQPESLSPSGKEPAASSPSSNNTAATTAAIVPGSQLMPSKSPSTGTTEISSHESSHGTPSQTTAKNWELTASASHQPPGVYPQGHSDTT

B1: xmPD-1-hIL15 V49R/E46G/E64Q/D30N/M109A (other)
heavy 1: HHHHHHHHGGGGSGSGGEVQLVESGGGLVKPGGSLELSCAASGFTFSSYWMSWVRQAPEKGLEWVAAISPSGGSTYYADSVKGRFTISRDNAKNTLFLQMTSLRSEDTAMYYCAKESWGAYYDLWGQGTTVTVSSASTKGPSVFPLAPCSRSTSESTAALGCLVKDYFPEPVTVSWNSGALTSGVHTFPAVLQSSGLYSLSSVVTVPSSNFGTQTYTCNVDHKPSNTKVDKTVERKCRVRCPRCPAPPVAGPSVFLFPPKPKDTLMISRTPEVTCVVVAVSHEDPEVQFNWYVDGVEVHNAKTKPREEQFNSTFRVVSVLTVVHQDWLNGKEYKCKVSNKGLPSSIEKTISKTKGQPREPQVYTLPPSREEMTKNQVSLTCLVKGFYPSDIAVEWESNGQPENNYKTTPPMLDSDGSFFLYSRLTVDKSRWQQGNVFSCSVMHEALHNHYTQKSLSLSPGK
heavy 2: EVQLVESGGGLVKPGGSLELSCAASGFTFSSYWMSWVRQAPEKGLEWVAAISPSGGSTYYADSVKGRFTISRDNAKNTLFLQMTSLRSEDTAMYYCAKESWGAYYDLWGQGTTVTVSSASTKGPSVFPLAPCSRSTSESTAALGCLVKDYFPEPVTVSWNSGALTSGVHTFPAVLQSSGLYSLSSVVTVPSSNFGTQTYTCNVDHKPSNTKVDKTVERKCEVECPECPAPPVAGPSVFLFPPKPKDTLMISRTPEVTCVVVAVSHEDPEVQFNWYVDGVEVHNAKTKPREEQFNSTFRVVSVLTVVHQDWLNGKEYKCKVSNKGLPSSIEKTISKTKGQPREPQVYTLPPSREEMTKNQVSLTCEVKGFYPSDIAVEWESNGQPENNYKTTPPMLDSDGSFFLYSKLTVDKSRWQQGNVFSCSVMHEALHNHYTQKSLSLSPGSGGGGGTSATATPGANWVNVISDLKKIEDLIQSMHIDATLYTESNVHPSCKVTAMKCFLLGLQRISLESGDASIHDTVQNLIILANNSLSSNGNVTESGCKECEELEEKNIKEFLQSFVHIVQAFINT
light: DIVMTQSPSSLSVSAGDKVTMSCRASQGISSWLAWYQQKPWQPPKLLIYKASTLESGVPDRFTGSGSGTDFTLTISSVQAEDLAVYYCQQSYSTPWTFGGGTKLEIKGTVAAPSVFIFPPSDEQLKSGTASVVCLLNNFYPREAKVQWKVDNALQSGNSQESVTEQDSKDSTYSLSSTLTLSKADYEKHKVYACEVTHQGLSSPVTKSFNRGEC
notes: not restated for this mutant
Consider B1, for which the binding result in the assay with human IL-15Rα is listed as “no binding (tested: 3000 nM)”. In the assay with human IL-2Rβ, this molecule returned a dissociation constant (Kd) of over 3 µM.

B2: xmPD-1-hIL15Rasu-hIL15(E64Q/D30N/I68S) (other)
heavy 1: HHHHHHHHGGGGSGSGGEVQLVESGGGLVKPGGSLELSCAASGFTFSSYWMSWVRQAPEKGLEWVAAISPSGGSTYYADSVKGRFTISRDNAKNTLFLQMTSLRSEDTAMYYCAKESWGAYYDLWGQGTTVTVSSASTKGPSVFPLAPCSRSTSESTAALGCLVKDYFPEPVTVSWNSGALTSGVHTFPAVLQSSGLYSLSSVVTVPSSNFGTQTYTCNVDHKPSNTKVDKTVERKCRVRCPRCPAPPVAGPSVFLFPPKPKDTLMISRTPEVTCVVVAVSHEDPEVQFNWYVDGVEVHNAKTKPREEQFNSTFRVVSVLTVVHQDWLNGKEYKCKVSNKGLPSSIEKTISKTKGQPREPQVYTLPPSREEMTKNQVSLTCLVKGFYPSDIAVEWESNGQPENNYKTTPPMLDSDGSFFLYSRLTVDKSRWQQGNVFSCSVMHEALHNHYTQKSLSLSPGK
heavy 2: EVQLVESGGGLVKPGGSLELSCAASGFTFSSYWMSWVRQAPEKGLEWVAAISPSGGSTYYADSVKGRFTISRDNAKNTLFLQMTSLRSEDTAMYYCAKESWGAYYDLWGQGTTVTVSSASTKGPSVFPLAPCSRSTSESTAALGCLVKDYFPEPVTVSWNSGALTSGVHTFPAVLQSSGLYSLSSVVTVPSSNFGTQTYTCNVDHKPSNTKVDKTVERKCEVECPECPAPPVAGPSVFLFPPKPKDTLMISRTPEVTCVVVAVSHEDPEVQFNWYVDGVEVHNAKTKPREEQFNSTFRVVSVLTVVHQDWLNGKEYKCKVSNKGLPSSIEKTISKTKGQPREPQVYTLPPSREEMTKNQVSLTCEVKGFYPSDIAVEWESNGQPENNYKTTPPMLDSDGSFFLYSKLTVDKSRWQQGNVFSCSVMHEALHNHYTQKSLSLSPGSGGGGGTSATATPGAITCPPPMSVEHADIWVKSYSLYSRERYICNSGFKRKAGTSSLTECVLNKATNVAHWTTPSLKCIRDPALVHQRPAPPSGGSGGGGSGGGSGGGGSGGNWVNVISDLKKIEDLIQSMHIDATLYTESNVHPSCKVTAMKCFLLELQVISLESGDASIHDTVQNLISLANNSLSSNGNVTESGCKECEELEEKNIKEFLQSFVHIVQMFINT
light: DIVMTQSPSSLSVSAGDKVTMSCRASQGISSWLAWYQQKPWQPPKLLIYKASTLESGVPDRFTGSGSGTDFTLTISSVQAEDLAVYYCQQSYSTPWTFGGGTKLEIKGTVAAPSVFIFPPSDEQLKSGTASVVCLLNNFYPREAKVQWKVDNALQSGNSQESVTEQDSKDSTYSLSSTLTLSKADYEKHKVYACEVTHQGLSSPVTKSFNRGEC
notes: not restated for this mutant
As for B2, in the assay with human IL-15Rα, the binding result is given as “no binding (tested: 3000 nM)”. Besides, in the assay with human IL-2Rβ, the Kd was over 3 µM.

B3: xmPD-1-hIL15Rasu-hIL15(E64Q/D30N/I68S/M109A) (other)
heavy 1: HHHHHHHHGGGGSGSGGEVQLVESGGGLVKPGGSLELSCAASGFTFSSYWMSWVRQAPEKGLEWVAAISPSGGSTYYADSVKGRFTISRDNAKNTLFLQMTSLRSEDTAMYYCAKESWGAYYDLWGQGTTVTVSSASTKGPSVFPLAPCSRSTSESTAALGCLVKDYFPEPVTVSWNSGALTSGVHTFPAVLQSSGLYSLSSVVTVPSSNFGTQTYTCNVDHKPSNTKVDKTVERKCRVRCPRCPAPPVAGPSVFLFPPKPKDTLMISRTPEVTCVVVAVSHEDPEVQFNWYVDGVEVHNAKTKPREEQFNSTFRVVSVLTVVHQDWLNGKEYKCKVSNKGLPSSIEKTISKTKGQPREPQVYTLPPSREEMTKNQVSLTCLVKGFYPSDIAVEWESNGQPENNYKTTPPMLDSDGSFFLYSRLTVDKSRWQQGNVFSCSVMHEALHNHYTQKSLSLSPGK
heavy 2: EVQLVESGGGLVKPGGSLELSCAASGFTFSSYWMSWVRQAPEKGLEWVAAISPSGGSTYYADSVKGRFTISRDNAKNTLFLQMTSLRSEDTAMYYCAKESWGAYYDLWGQGTTVTVSSASTKGPSVFPLAPCSRSTSESTAALGCLVKDYFPEPVTVSWNSGALTSGVHTFPAVLQSSGLYSLSSVVTVPSSNFGTQTYTCNVDHKPSNTKVDKTVERKCEVECPECPAPPVAGPSVFLFPPKPKDTLMISRTPEVTCVVVAVSHEDPEVQFNWYVDGVEVHNAKTKPREEQFNSTFRVVSVLTVVHQDWLNGKEYKCKVSNKGLPSSIEKTISKTKGQPREPQVYTLPPSREEMTKNQVSLTCEVKGFYPSDIAVEWESNGQPENNYKTTPPMLDSDGSFFLYSKLTVDKSRWQQGNVFSCSVMHEALHNHYTQKSLSLSPGSGGGGGTSATATPGAITCPPPMSVEHADIWVKSYSLYSRERYICNSGFKRKAGTSSLTECVLNKATNVAHWTTPSLKCIRDPALVHQRPAPPSGGSGGGGSGGGSGGGGSGGNWVNVISDLKKIEDLIQSMHIDATLYTESNVHPSCKVTAMKCFLLELQVISLESGDASIHDTVQNLISLANNSLSSNGNVTESGCKECEELEEKNIKEFLQSFVHIVQAFINT
light: DIVMTQSPSSLSVSAGDKVTMSCRASQGISSWLAWYQQKPWQPPKLLIYKASTLESGVPDRFTGSGSGTDFTLTISSVQAEDLAVYYCQQSYSTPWTFGGGTKLEIKGTVAAPSVFIFPPSDEQLKSGTASVVCLLNNFYPREAKVQWKVDNALQSGNSQESVTEQDSKDSTYSLSSTLTLSKADYEKHKVYACEVTHQGLSSPVTKSFNRGEC
notes: not restated for this mutant
Consider B3, for which the binding result in the assay with human IL-15Rα is on record as “no binding (tested: 3000 nM)”. Besides, the Kd in the assay with human IL-2Rβ is over 1.5 µM.

For orientation: Kd means a measure of binding affinity in units of concentration. A lower Kd goes with higher affinity.
